Biological target: T1, PD-L1-Fc (UniProt Q9NZQ7 19-238, limits assumed)
T1 construct: extracellular domain; not shown: Fc fragment of human IgG
Test: SPR (Biacore), antibody captured by anti-human Fab on CM5 chip, PD-L1-Fc as analyte, 1:1 binding fit

T1 sequence (Q9NZQ7 19-238 limits assumed): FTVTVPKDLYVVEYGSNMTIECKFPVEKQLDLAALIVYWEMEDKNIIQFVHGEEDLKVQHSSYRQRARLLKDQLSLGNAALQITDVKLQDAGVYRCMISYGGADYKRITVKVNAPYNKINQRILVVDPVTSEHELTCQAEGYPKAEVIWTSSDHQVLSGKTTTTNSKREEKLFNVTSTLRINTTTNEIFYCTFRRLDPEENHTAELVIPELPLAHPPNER

Kd: 0.429 nM
koff: 0.000195 s⁻¹
kon: 457000 M⁻¹ s⁻¹
B1: Mil85-6抗体 (antibody, V domains shown)
VH: EVQLVESGGGLVQPGGSLRLSCAASGFTFADSWIHWVRQAPGKGLEWVAWISPFGGSNYYADSVKGRFTISADTSKNTAYLQMNSLRAEDTAVYYCARRHWPGGFDYWGQGTLVTVSS
VL: DIQMTQSPSSLSASVGDRVTITCRASQSIGTALNWYQQKPGKAPKLLIYTASSLQSGVPSRFSGSGSGTDFTLTISSLQPEDFATYYCQQDNYTPMTFGQGTKVEIK
notes: also called Mil85-6-5C6; 全抗体
